Experimental data as given in publication PMC7367873, “Dissecting the sequence determinants for dephosphorylation by the catalytic subunits of phosphatases PP1 and PP2A” (Nature Communications, 2020).

Columns and labels:
[1] = system: GFP-14-3-3β and its binding proteins; experiment: GFP-14-3-3β co-IP with LC-MS/MS label-free quantification, untreated versus PP1c-treated; set-up: species or system human; conditions: pairwise comparison PP1 vs untreated
GFP-14-3-3β = GFP-14-3-3β co-IP with LC-MS/MS, untreated GFP-14-3-3β versus GFP control (14-3-3 interactome); type: binding, human; conditions: pairwise comparison untreated vs GFP
[2] = log2 difference, label-free quantification, 3 replicates each

Molecule | Difference (log2), PP1 vs untreated [1] [log2] | Difference (log2), untreated vs GFP (GFP-14-3-3β) [log2] | Difference (log2), PP1 vs untreated [1, 2] | Difference (log2), untreated vs GFP (GFP-14-3-3β; [2])
TMEM41B (protein, UniProt Q5BJD5 1-291, looked up) Transmembrane protein 41B: MAKGRVAERSQLGAHHTTPVGDGAAGTRGLAAPGSRDHQKEKSWVEAGSARMSLLILVSIFLSAAFVMFLVYKNFPQLSEEERVNMKVPRDMDDAKALGKVLSKYKDTFYVQVLVAYFATYIFLQTFAIPGSIFLSILSGFLYPFPLALFLVCLCSGLGASFCYMLSYLVGRPVVYKYLTEKAVKWSQQVERHREHLINYIIFLRITPFLPNWFINITSPVINVPLKVFFIGTFLGVAPPSFVAIKAGTTLYQLTTAGEAVSWNSIFILMILAVLSILPAIFQKKLKQKFE | 0.218 | 0.8349 |  | 
HERC5 (protein, UniProt Q9UII4 1-1024, looked up) E3 ISG15--protein ligase HERC5: MERRSRRKSRRNGRSTAGKAAATQPAKSPGAQLWLFPSAAGLHRALLRRVEVTRQLCCSPGRLAVLERGGAGVQVHQLLAGSGGARTPKCIKLGKNMKIHSVDQGAEHMLILSSDGKPFEYDNYSMKHLRFESILQEKKIIQITCGDYHSLALSKGGELFAWGQNLHGQLGVGRKFPSTTTPQIVEHLAGVPLAQISAGEAHSMALSMSGNIYSWGKNECGQLGLGHTESKDDPSLIEGLDNQKVEFVACGGSHSALLTQDGLLFTFGAGKHGQLGHNSTQNELRPCLVAELVGYRVTQIACGRWHTLAYVSDLGKVFSFGSGKDGQLGNGGTRDQLMPLPVKVSSSEELKLESHTSEKELIMIAGGNQSILLWIKKENSYVNLKRTIPTLNEGTVKRWIADVETKRWQSTKREIQEIFSSPACLTGSFLRKRRTTEMMPVYLDLNKARNIFKELTQKDWITNMITTCLKDNLLKRLPFHSPPQEALEIFFLLPECPMMHISNNWESLVVPFAKVVCKMSDQSSLVLEEYWATLQESTFSKLVQMFKTAVICQLDYWDESAEENGNVQALLEMLKKLHRVNQVKCQLPESIFQVDELLHRLNFFVEVCRRYLWKMTVDASENVQCCVIFSHFPFIFNNLSKIKLLHTDTLLKIESKKHKAYLRSAAIEEERESEFALRPTFDLTVRRNHLIEDVLNQLSQFENEDLRKELWVSFSGEIGYDLGGVKKEFFYCLFAEMIQPEYGMFMYPEGASCMWFPVKPKFEKKRYFFFGVLCGLSLFNCNVANLPFPLALFKKLLDQMPSLEDLKELSPDLGKNLQTLLDDEGDNFEEVFYIHFNVHWDRNDTNLIPNGSSITVNQTNKRDYVSKYINYIFNDSVKAVYEEFRRGFYKMCDEDIIKLFHPEELKDVIVGNTDYDWKTFEKNARYEPGYNSSHPTIVMFWKAFHKLTLEEKKKFLVFLTGTDRLQMKDLNNMKITFCCPESWNERDPIRALTCFSVLFLPKYSTMETVEEALQEAINNNRGFG |  |  | 2.053 | 0.5274
RAI14 (protein, UniProt Q9P0K7 1-980, looked up) Ankycorbin: MKSLKAKFRKSDTNEWNKNDDRLLQAVENGDAEKVASLLGKKGASATKHDSEGKTAFHLAAAKGHVECLRVMITHGVDVTAQDTTGHSALHLAAKNSHHECIRKLLQSKCPAESVDSSGKTALHYAAAQGCLQAVQILCEHKSPINLKDLDGNIPLLLAVQNGHSEICHFLLDHGADVNSRNKSGRTALMLACEIGSSNAVEALIKKGADLNLVDSLGYNALHYSKLSENAGIQSLLLSKISQDADLKTPTKPKQHDQVSKISSERSGTPKKRKAPPPPISPTQLSDVSSPRSITSTPLSGKESVFFAEPPFKAEISSIRENKDRLSDSTTGADSLLDISSEADQQDLLSLLQAKVASLTLHNKELQDKLQAKSPKEAEADLSFDSYHSTQTDLGPSLGKPGETSPPDSKSSPSVLIHSLGKSTTDNDVRIQQLQEILQDLQKRLESSEAERKQLQVELQSRRAELVCLNNTEISENSSDLSQKLKETQSKYEEAMKEVLSVQKQMKLGLVSPESMDNYSHFHELRVTEEEINVLKQDLQNALEESERNKEKVRELEEKLVEREKGTVIKPPVEEYEEMKSSYCSVIENMNKEKAFLFEKYQEAQEEIMKLKDTLKSQMTQEASDEAEDMKEAMNRMIDELNKQVSELSQLYKEAQAELEDYRKRKSLEDVTAEYIHKAEHEKLMQLTNVSRAKAEDALSEMKSQYSKVLNELTQLKQLVDAQKENSVSITEHLQVITTLRTAAKEMEEKISNLKEHLASKEVEVAKLEKQLLEEKAAMTDAMVPRSSYEKLQSSLESEVSVLASKLKESVKEKEKVHSEVVQIRSEVSQVKREKENIQTLLKSKEQEVNELLQKFQQAQEELAEMKRYAESSSKLEEDKDKKINEMSKEVTKLKEALNSLSQLSYSTSSSKRQSQQLEALQQQVKQLQNQLAECKKQHQEVISVYRMHLLYAVQGQMDEDVQKVLKQILTMCKNQSQKK | 0.1978 | 0.7048 |  | 
